# The supplement of paper PMC5998384
# Legend:
# HeLa Kyoto [1] = assay: melting temperature (median over replicates), in situ; higher = more thermally stable
# HeLa Kyoto [2] = assay: thermal stability score vs G1/S (z-score of summed log2 fold changes over temperatures); higher = more thermally stable than in G1/S
# HeLa Kyoto [3] = assay: solubility in G1/S (NP-40 vs SDS abundance) (log2 ratio); higher = more soluble; conditions: cell cycle stage: G1/S
# HeLa Kyoto [4] = assay: solubility change mitosis vs G1/S (difference of NP-40 vs SDS log2 ratios) (log2 ratio difference); higher = more soluble in mitosis
# [5] = cell cycle stage: early G1 (4.5 h after nocodazole release)
# 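Throughout, for melting temperature (median over replicates), in situ: HeLa Kyoto cells synchronized by double thymidine or nocodazole block, proteins quantified by TMT10plex mass spectrometry, three independent biological replicates.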
# 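Throughout, for solubility change mitosis vs G1/S (difference of NP-40 vs SDS log2 ratios): synchronized HeLa Kyoto cells (double thymidine block for G1/S, nocodazole release for mitosis), protein amounts in NP-40 versus SDS lysates quantified by mass spectrometry, three biological replicates.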
# 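Throughout, for solubility in G1/S (NP-40 vs SDS abundance): HeLa Kyoto cells arrested at G1/S by double thymidine block, proteins quantified by TMT10plex mass spectrometry in mild NP-40 versus SDS extracts, three biological replicates.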
# 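Throughout, for thermal stability score vs G1/S (z-score of summed log2 fold changes over temperatures): synchronized HeLa Kyoto cells, proteins quantified by TMT10plex mass spectrometry, three biological replicates, mitosis taken 0.5 h after nocodazole release, G1/S directly after double thymidine block.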
Sequence,melting temperature (HeLa Kyoto [1]; cell cycle stage: G1/S) [°C],melting temperature (HeLa Kyoto [1]; cell cycle stage: mitosis) [°C],thermal stability score (HeLa Kyoto [2]; [5]),thermal stability score (HeLa Kyoto [2]; cell cycle stage: mitosis),solubility in G1/S (log2) (HeLa Kyoto [3]),solubility change mitosis (log2) (HeLa Kyoto [4])
MRSARSTALNRGEQRAVRYYSHMKLNMAEEEDYMSDSFINVQEDIRPGLPMLRQIREARRKEEKQQEANLKNRQKSLKEEEQERRDIGLKNALGCENKGFALLQKMGYKSGQALGKSGGGIVEPIPLNIKTGKSGIGHEASLKRKAEEKLESYRKKIHMKNQAEEKAAEQFRMRLKNKQDEMKLEGDLRRSQRACQQLDVQKNIQVPREAWYWLRLEEETEEDEEEKEQDEDEYKSEDLSVLEKLQILTSYLREEHLYCIWCGTAYEDKEDLSSNCPGPTSADHD [GPATCH11],52.1,52.3,-1.77,-0.0183,0.127,0.138
MRSSCVLLTALVALAAYYVYIPLPGSVSDPWKLMLLDATFRGAQQVSNLIHYLGLSHHLLALNFIIVSFGKKSAWSSAQVKVTDTDFDGVEVRVFEGPPKPEEPLKRSVVYIHGGGWALASAKIRYYDELCTAMAEELNAVIVSIEYRLVPKVYFPEQIHDVVRATKYFLKPEVLQKYMVDPGRICISGDSAGGNLAAALGQQFTQDASLKNKLKLQALIYPVLQALDFNTPSYQQNVNTPILPRYVMVKYWVDYFKGNYDFVQAMIVNNHTSLDVEEAAAVRARLNWTSLLPASFTKNYKPVVQTTGNARIVQELPQLLDARSAPLIADQAVLQLLPKTYILTCEHDVLRDDGIMYAKRLESAGVEVTLDHFEDGFHGCMIFTSWPTNFSVGIRTRNSYIKWLDQNL [NCEH1],57.4,57.7,-0.627,-0.868,0.156,-0.118
MSAAGLLAPAPAQAGAPPAPEYYPEEDEELESAEDDERSCRGRESDEDTEDASETDLAKHDEEDYVEMKEQMYQDKLASLKRQLQQLQEGTLQEYQKRMKKLDQQYKERIRNAELFLQLETEQVERNYIKEKKAAVKEFEDKKVELKENLIAELEEKKKMIENEKLTMELTGDSMEVKPIMTRKLRRRPNDPVPIPDKRRKPAPAQLNYLLTDEQIMEDLRTLNKLKSPKRPASPSSPEHLPATPAESPAQRFEARIEDGKLYYDKRWYHKSQAIYLESKDNQKLSCVISSVGANEIWVRKTSDSTKMRIYLGQLQRGLFVIRRRSAA [SUDS3],49,50.6,0.216,0.399,0.341,0.238
MSAAKENPCRKFQANIFNKSKCQNCFKPRESHLLNDEDLTQAKPIYGGWLLLAPDGTDFDNPVHRSRKWQRRFFILYEHGLLRYALDEMPTTLPQGTINMNQCTDVVDGEGRTGQKFSLCILTPEKEHFIRAETKEIVSGWLEMLMVYPRTNKQNQKKKRKVEPPTPQEPGPAKVAVTSSSSSSSSSSSIPSAEKVPTTKSTLWQEEMRTKDQPDGSSLSPAQSPSQSQPPAASSLREPGLESKEEESAMSSDRMDCGRKVRVESGYFSLEKTKQDLKAEEQQLPPPLSPPSPSTPNHRRSQVIEKFEALDIEKAEHMETNAVGPSPSSDTRQGRSEKRAFPRKRDFTNEAPPAPLPDASASPLSPHRRAKSLDRRSTEPSVTPDLLNFKKGWLTKQYEDGQWKKHWFVLADQSLRYYRDSVAEEAADLDGEIDLSACYDVTEYPVQRNYGFQIHTKEGEFTLSAMTSGIRRNWIQTIMKHVHPTTAPDVTSSLPEEKNKSSCSFETCPRPTEKQEAELGEPDPEQKRSRARERRREGRSKTFDWAEFRPIQQALAQERVGGVGPADTHEPLRPEAEPGELERERARRREERRKRFGMLDATDGPGTEDAALRMEVDRSPGLPMSDLKTHNVHVEIEQRWHQVETTPLREEKQVPIAPVHLSSEDGGDRLSTHELTSLLEKELEQSQKEASDLLEQNRLLQDQLRVALGREQSAREGYVLQATCERGFAAMEETHQKKIEDLQRQHQRELEKLREEKDRLLAEETAATISAIEAMKNAHREEMERELEKSQRSQISSVNSDVEALRRQYLEELQSVQRELEVLSEQYSQKCLENAHLAQALEAERQALRQCQRENQELNAHNQELNNRLAAEITRLRTLLTGDGGGEATGSPLAQGKDAYELEVLLRVKESEIQYLKQEISSLKDELQTALRDKKYASDKYKDIYTELSIAKAKADCDISRLKEQLKAATEALGEKSPDSATVSGYDIMKSKSNPDFLKKDRSCVTRQLRNIRSKSVIEQVSWDT [MPRIP],51.9,52.6,-0.81,-1.05,-1.2,0.41
MSAFSEAALEKKLSELSNSQQSVQTLSLWLIHHRKHSRPIVTVWERELRKAKPNRKLTFLYLANDVIQNSKRKGPEFTKDFAPVIVEAFKHVSSETDESCKKHLGRVLSIWEERSVYENDVLEQLKQALYGDKKPRKRTYEQIKVDENENCSSLGSPSEPPQTLDLVRALQDLENAASGDAAVHQRIASLPVEVQEVSLLDKITDKESGERLSKMVEDACMLLADYNGRLAAEIDDRKQLTRMLADFLRCQKEALAEKEHKLEEYKRKLARVSLVRKELRSRIQSLPDLSRLPNVTGSHMHLPFAGDIYSED [RPRD1A],48,49.5,1.27,1.64,0.66,-0.0443
MSAIQAAWPSGTECIAKYNFHGTAEQDLPFCKGDVLTIVAVTKDPNWYKAKNKVGREGIIPANYVQKREGVKAGTKLSLMPWFHGKITREQAERLLYPPETGLFLVRESTNYPGDYTLCVSCDGKVEHYRIMYHASKLSIDEEVYFENLMQLVEHYTSDADGLCTRLIKPKVMEGTVAAQDEFYRSGWALNMKELKLLQTIGKGEFGDVMLGDYRGNKVAVKCIKNDATAQAFLAEASVMTQLRHSNLVQLLGVIVEEKGGLYIVTEYMAKGSLVDYLRSRGRSVLGGDCLLKFSLDVCEAMEYLEGNNFVHRDLAARNVLVSEDNVAKVSDFGLTKEASSTQDTGKLPVKWTAPEALREKKFSTKSDVWSFGILLWEIYSFGRVPYPRIPLKDVVPRVEKGYKMDAPDGCPPAVYEVMKNCWHLDAAMRPSFLQLREQLEHIKTHELHL [CSK],49.3,49.8,-0.12,0.74,0.0872,-0.139
